Stoichiometry N data for one substance are collected here from publication PMC7563236.

What is called stoichiometry N is a count of units in the complex or per binding partner.

For this test, the target named is His6-Ku70-tRFP (human) (UniProt P12956). Briefly: SDS-PAGE without heat denaturation, fluorescence in the gel; samples not denatured at 94 °C; bands of His6-Ku70-tRFP seen by tRFP fluorescence.

“His6-Ku70-tRFP (from UniProt P12956 1-609) (natural protein)” yielded a stoichiometry N of 2.
